# Source: paper PMC10823258 (Proceedings of the National Academy of Sciences of the …, 2024)
# Changes are numbered by the printed parent chain. Numbers in names are those of the source. Where two headings read alike, the source gives them in different places.
# B1: SCV PTE WT (structured_RNA)
# RNA: GGUUGCUCGACUGUGAGGGGACCUACCCACUGUGCUGCCACACAGGAACUUCCAACCUUCGGGUGGCGAGGUAGGGCAGAAGAGUGACC
# B2: SCV PTE G18C (structured_RNA)
# RNA: GGUUGCUCGACUGUGAGCGGACCUACCCACUGUGGAAACACCACAGGAACUUCCAACCUUCGGGUGGCGAGGUAGGGCAGAAGAGUGACC
# B3: SCV PTE G18U (structured_RNA)
# RNA: B2 RNA with C18U
# B4: SCV PTE G18A (structured_RNA)
# RNA: B2 RNA with C18A
# B5: 5' capped RNA (ssRNA)
# RNA: GGGGUCUCUCUUGUCGAGAGGCAAGGAACCC
# modifications: 5' cap (m7G)
# Experiments:
# wheat eIF4E = biological target: T1, wheat eIF4E (Triticum aestivum, UniProt P29557); assay: isothermal titration calorimetry; type: binding
# T1 sequence (P29557 39-215): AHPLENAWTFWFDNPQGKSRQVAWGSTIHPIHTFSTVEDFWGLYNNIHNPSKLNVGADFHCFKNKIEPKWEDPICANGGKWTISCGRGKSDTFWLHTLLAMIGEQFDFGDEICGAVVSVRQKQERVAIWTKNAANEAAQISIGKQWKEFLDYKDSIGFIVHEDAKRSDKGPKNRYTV
# GB1-human eIF4E = GB1-human eIF4E (human, UniProt P06730); assay: ITC
# human eIF4E [1] = biological target: T2, human eIF4E (human, UniProt P06730); assay: ITC
# human eIF4E [2] = biological target: T2, human eIF4E; assay: ITC; remark: listed apart in the source
# human eIF4E [3] = biological target: T2, human eIF4E; assay: ITC; remark: listed apart in the source
# human eIF4E [4] = biological target: T2, human eIF4E; assay: ITC; remark: listed apart in the source
molecule,measurement,setting,value
C[n+]1cn([C@@H]2O[C@H](COP(=O)(O)OP(=O)(O)OP(=O)(O)O)[C@@H](O)[C@H]2O)c2nc(N)[nH]c(=O)c21 [m7GTP],Kd,wheat eIF4E,1800 ± 800 nM
B1,Kd,GB1-human eIF4E,900 ± 236 nM
same,Kd,human eIF4E [1],576 ± 56 nM
B2,binding result,human eIF4E [2],no binding
B3,binding result,human eIF4E [2],no binding
B4,Kd,human eIF4E [3],6200 ± 900 nM
B5,Kd,human eIF4E [4],76 ± 3 nM
